Measurements: article doi:10.1101/2025.11.10.687450, “ALC1 Finds a New Foothold on the Nucleosome’s Super-Groove” (bioRxiv, 2025)

Target: T1, histone H4 (in the PARylated nucleosome) (UniProt P62799 1-103)
T1 construct: histone H4 as in the nucleosome m2; The H4 chain of m2, written on its own for the contact with ALC1's C-ATPase lobe; also called H4 tail
Assay: cryo-EM structure; re-analysis of the public dataset EMPIAR-10739 in CryoSPARC: WT ALC1 with an enzymatically PARylated nucleosome (Widom 601 DNA), sample contained ADP-BeF3; 15,740 particles, global resolution 6.60 Å, domains fitted as rigid bodies
Conditions: both partners purified

binding result: binds
B1: Amplified in Liver Cancer 1 (ALC1), wild type (enzyme)
chain: MERAGATSRGGQAPGFLLRLHTEGRAEAARVQEQDLRQWGLTGIHLRSYQLEGVNWLAQRFHCQNGCILGDEMGLGKTCQTIALFIYLAGRLNDEGPFLILCPLSVLSNWKEEMQRFAPGLSCVTYAGDKEERACLQQDLKQESRFHVLLTTYEICLKDASFLKSFPWSVLVVDEAHRLKNQSSLLHKTLSEFSVVFSLLLTGTPIQNSLQELYSLLSFVEPDLFSKEEVGDFIQRYQDIEKESESASELHKLLQPFLLRRVKAEVATELPKKTEVVIYHGMSALQKKYYKAILMKDLDAFENETAKKVKLQNILSQLRKCVDHPYLFDGVEPEPFEVGDHLTEASGKLHLLDKLLAFLYSGGHRVLLFSQMTQMLDILQDYMDYRGYSYERVDGSVRGEERHLAIKNFGQQPIFVFLLSTRAGGVGMNLTAADTVIFVDSDFNPQNDLQAAARAHRIGQNKSVKVIRLIGRDTVEEIVYRKAASKLQLTNMIIEGGHFTLGAQKPAADADLQLSEILKFGLDKLLASEGSTMDEIDLESILGETKDGQWVSDALPAAEGGSRDQEEGKNHMYLFEGKDYSKEPSKEDRKSFEQLVNLQKTLLEKASQEGRSLRNKGSVLIPGLVEGSTKRKRVLSPEELEDRQKKRQEAAAKRRRLIEEKKRQKEEAEHKKKMAWWESNNYQSFCLPSEESEPEDLENGEESSAELDYQDPDATSLKYVSGDVTHPQAGAEDALIVHCVDDSGHWGRGGLFTALEKRSAEPRKIYELAGKMKDLSLGGVLLFPVDDKESRNKGQDLLALIVAQHRDRSNVLSGIKMAALEEGLKKIFLAAKKKKASVHLPRIGHATKGFNWYGTERLIRKHLAARGIPTYIYYFPRSKSAVLHSQSSSSSSRQLVP
notes: ALC1 (chromatin remodeler), human, UniProt Q86WJ1; wild type; residues 28-874 are modelled in the map; The sample is that of the public dataset EMPIAR-10739; also called WT ALC1
